Test results from US20170267783A1 (published 2017).

Target: extracellular matrix (ECM; BD Matrigel)
Assay: ECL on Matrigel-coated plate, signal divided by that of MRAH-G1d/MRAL-k0

B1: TR01H040-E2702GsKsc/H0610-E2704sEpsc/L0000-k0 (bispecific antibody, human IgG4 S228P, kappa, N297A)
heavy 1: QVQLVESGGGLVQPGRSLRLSCAASGFTFSNAWMHWVRQAPGKGLEWVAQIKDKSQNYATYYAESVKGRFTISRADSKNSIYLQMNSLKTEDTAVYYCRYVHYSASYGVDAWGQGTTVTVSSASTKGPSVFPLAPCSRSTSESTAALGCLVKDYFPEPVTVSWNSGALTSGVHTFPAVLQSSGLYSLSSVVTVPSSSLGTKTYTCNVDHKPSNTKVDKRVESKYGPPCPPCPAPEFRGGPKVFLFPPKPKDTLMISRTPEVTCVVVDVSQEDPEVQFNWYVDGVEVHNAKTKPREEQFASTYRVVSVLTVLHQDWLNGKEYKCKVSNKGLPSSIEKTISKAKGQPREPQVYTLPPSQKEMTKNQVSLTCLVKGFYPSDIAVEWESNGQPENNYKTTPPVLDSDGSFFLYSKLTVDKSRWQEGNVFSCSVMHEALHNRYTQKSLSLSP
heavy 2: QVQLVQSGAEVKKPGASVKVSCKASGYTFTDYEMHWIRQPPGQGLEWIGAIDGKTPDTAYSQKFKGRVTLTADKSTSTAYMELSSLTSEDTAVYYCTRFYSYTYWGQGTLVTVSSASTKGPSVFPLAPCSRSTSESTAALGCLVKDYFPEPVTVSWNSGALTSGVHTFPAVLQSSGLYSLSSVVTVPSSSLGTQTYTCNVDHKPSNTKVDKRVESKYGPPCPPCPAPEFRGGPKVFLFPPKPKDTLMISRTPEVTCVVVDVSQEDPEVQFNWYVDGVEVHNAKTKPREEQFASTYRVVSVLTVLHQDWLNGKEYKCKVSNKGLPSSIEKTISKAKGQPREPQVYTLPPSQEEMTKNQVSLTCLVKGFYPSDIAVEWESNGQPENNYKTTPPVLDSDGSFFLYSKLTVDKSRWQEGNVFSCSVMHEALHNHYTQESLSLSP
light: DIVMTQSPLSLPVTPGEPASISCRSSQSLVHSNRNTYLHWYQQKPGQAPRLLIYKVSNRFSGVPDRFSGSGSGTDFTLKISRVEAEDVGVYYCGQGTQVPYTFGQGTKLEIKRTVAAPSVFIFPPSDEQLKSGTASVVCLLNNFYPREAKVQWKVDNALQSGNSQESVTEQDSKDSTYSLSSTLTLSKADYEKHKVYACEVTHQGLSSPVTKSFNRGEC
**Q.** B1 was tested. Which ECM binding ratio (standard = 1) (ratio to standard antibody) did it give?
**A.** Its ECM binding ratio (standard = 1) (ratio to standard antibody) is 0.8.

B2: TR01H040-E2702GsKsc/H0610-E2704sEpsc/L0201-k0 (bispecific antibody, human IgG4 S228P, kappa, N297A)
heavy 1: QVQLVESGGGLVQPGRSLRLSCAASGFTFSNAWMHWVRQAPGKGLEWVAQIKDKSQNYATYYAESVKGRFTISRADSKNSIYLQMNSLKTEDTAVYYCRYVHYSASYGVDAWGQGTTVTVSSASTKGPSVFPLAPCSRSTSESTAALGCLVKDYFPEPVTVSWNSGALTSGVHTFPAVLQSSGLYSLSSVVTVPSSSLGTKTYTCNVDHKPSNTKVDKRVESKYGPPCPPCPAPEFRGGPKVFLFPPKPKDTLMISRTPEVTCVVVDVSQEDPEVQFNWYVDGVEVHNAKTKPREEQFASTYRVVSVLTVLHQDWLNGKEYKCKVSNKGLPSSIEKTISKAKGQPREPQVYTLPPSQKEMTKNQVSLTCLVKGFYPSDIAVEWESNGQPENNYKTTPPVLDSDGSFFLYSKLTVDKSRWQEGNVFSCSVMHEALHNRYTQKSLSLSP
heavy 2: QVQLVQSGAEVKKPGASVKVSCKASGYTFTDYEMHWIRQPPGQGLEWIGAIDGKTPDTAYSQKFKGRVTLTADKSTSTAYMELSSLTSEDTAVYYCTRFYSYTYWGQGTLVTVSSASTKGPSVFPLAPCSRSTSESTAALGCLVKDYFPEPVTVSWNSGALTSGVHTFPAVLQSSGLYSLSSVVTVPSSSLGTQTYTCNVDHKPSNTKVDKRVESKYGPPCPPCPAPEFRGGPKVFLFPPKPKDTLMISRTPEVTCVVVDVSQEDPEVQFNWYVDGVEVHNAKTKPREEQFASTYRVVSVLTVLHQDWLNGKEYKCKVSNKGLPSSIEKTISKAKGQPREPQVYTLPPSQEEMTKNQVSLTCLVKGFYPSDIAVEWESNGQPENNYKTTPPVLDSDGSFFLYSKLTVDKSRWQEGNVFSCSVMHEALHNHYTQESLSLSP
light: DIVMTQSPLSLPVTPGEPASISCRSSQPPVHSNRNTYLHWYQQKPGQAPRLLIYKVSNRFSGVPDRFSGSGSGTDFTLKISRVEAEDVGVYYCGQGTQVPYTFGQGTKLEIKRTVAAPSVFIFPPSDEQLKSGTASVVCLLNNFYPREAKVQWKVDNALQSGNSQESVTEQDSKDSTYSLSSTLTLSKADYEKHKVYACEVTHQGLSSPVTKSFNRGEC
**Q.** With B2 as the binder, how does the ECM binding ratio (standard = 1) (ratio to standard antibody) read?
**A.** The ECM binding ratio (standard = 1) (ratio to standard antibody) was 0.8.

B3: TR01H082-E2702GsKsc/GCH094-E2704sEpsc/L0011-k0 (bispecific antibody, human IgG4 S228P, kappa, N297A)
heavy 1: QVQLVESGGGLVQPGRSLRLSCAASGFTFSNAWMHWVRQAPGKGLEWVAQIKDKSQNYATYYAESVKGRFTISRDDSKNSLYLQMNSLKTEDTAVYYCRYVHYAAGYGVDAWGQGTTVTVSSASTKGPSVFPLAPCSRSTSESTAALGCLVKDYFPEPVTVSWNSGALTSGVHTFPAVLQSSGLYSLSSVVTVPSSSLGTKTYTCNVDHKPSNTKVDKRVESKYGPPCPPCPAPEFRGGPKVFLFPPKPKDTLMISRTPEVTCVVVDVSQEDPEVQFNWYVDGVEVHNAKTKPREEQFASTYRVVSVLTVLHQDWLNGKEYKCKVSNKGLPSSIEKTISKAKGQPREPQVYTLPPSQKEMTKNQVSLTCLVKGFYPSDIAVEWESNGQPENNYKTTPPVLDSDGSFFLYSKLTVDKSRWQEGNVFSCSVMHEALHNRYTQKSLSLSP
heavy 2: QVQLVQSGAEVKKPGASVTVSCKASGYTFTDYEMHWVRQAPGEGLEWMGAIDGETPDTAYSEKFKGRVTLTADKSTSTAYMELSSLTSEDTAVYYCTRFYSYTYWGQGTLVTVSSASTKGPSVFPLAPCSRSTSESTAALGCLVKDYFPEPVTVSWNSGALTSGVHTFPAVLQSSGLYSLSSVVTVPSSSLGTQTYTCNVDHKPSNTKVDKRVESKYGPPCPPCPAPEFRGGPKVFLFPPKPKDTLMISRTPEVTCVVVDVSQEDPEVQFNWYVDGVEVHNAKTKPREEQFASTYRVVSVLTVLHQDWLNGKEYKCKVSNKGLPSSIEKTISKAKGQPREPQVYTLPPSQEEMTKNQVSLTCLVKGFYPSDIAVEWESNGQPENNYKTTPPVLDSDGSFFLYSKLTVDKSRWQEGNVFSCSVMHEALHNHYTQESLSLSP
light: DIVMTQSPLSLPVTPGEPASISCRSSQPLVHSNRNTYLHWYQQKPGQAPRLLIYKVSNRFSGVPDRFSGSGSGTDFTLKISRVEAEDVGVYYCGQGTQVPYTFGQGTKLEIKRTVAAPSVFIFPPSDEQLKSGTASVVCLLNNFYPREAKVQWKVDNALQSGNSQESVTEQDSKDSTYSLSSTLTLSKADYEKHKVYACEVTHQGLSSPVTKSFNRGEC
**Q.** How did the ECM binding ratio (standard = 1) (ratio to standard antibody) turn out when B3 was run?
**A.** Its ECM binding ratio (standard = 1) (ratio to standard antibody) is 0.7.

B4: TR01H040-E2702GsKsc/H0610-E2704sEpsc/L0203-k0 (bispecific antibody, human IgG4 S228P, kappa, N297A)
heavy 1: QVQLVESGGGLVQPGRSLRLSCAASGFTFSNAWMHWVRQAPGKGLEWVAQIKDKSQNYATYYAESVKGRFTISRADSKNSIYLQMNSLKTEDTAVYYCRYVHYSASYGVDAWGQGTTVTVSSASTKGPSVFPLAPCSRSTSESTAALGCLVKDYFPEPVTVSWNSGALTSGVHTFPAVLQSSGLYSLSSVVTVPSSSLGTKTYTCNVDHKPSNTKVDKRVESKYGPPCPPCPAPEFRGGPKVFLFPPKPKDTLMISRTPEVTCVVVDVSQEDPEVQFNWYVDGVEVHNAKTKPREEQFASTYRVVSVLTVLHQDWLNGKEYKCKVSNKGLPSSIEKTISKAKGQPREPQVYTLPPSQKEMTKNQVSLTCLVKGFYPSDIAVEWESNGQPENNYKTTPPVLDSDGSFFLYSKLTVDKSRWQEGNVFSCSVMHEALHNRYTQKSLSLSP
heavy 2: QVQLVQSGAEVKKPGASVKVSCKASGYTFTDYEMHWIRQPPGQGLEWIGAIDGKTPDTAYSQKFKGRVTLTADKSTSTAYMELSSLTSEDTAVYYCTRFYSYTYWGQGTLVTVSSASTKGPSVFPLAPCSRSTSESTAALGCLVKDYFPEPVTVSWNSGALTSGVHTFPAVLQSSGLYSLSSVVTVPSSSLGTQTYTCNVDHKPSNTKVDKRVESKYGPPCPPCPAPEFRGGPKVFLFPPKPKDTLMISRTPEVTCVVVDVSQEDPEVQFNWYVDGVEVHNAKTKPREEQFASTYRVVSVLTVLHQDWLNGKEYKCKVSNKGLPSSIEKTISKAKGQPREPQVYTLPPSQEEMTKNQVSLTCLVKGFYPSDIAVEWESNGQPENNYKTTPPVLDSDGSFFLYSKLTVDKSRWQEGNVFSCSVMHEALHNHYTQESLSLSP
light: DIVMTQSPLSLPVTPGEPASISCRSSQSPVHSNRNTYIHWYQQKPGQAPRLLIYKVSNRFSGVPDRFSGSGSGTDFTLKISRVEAEDVGVYYCGQGTQVPYTFGQGTKLEIKRTVAAPSVFIFPPSDEQLKSGTASVVCLLNNFYPREAKVQWKVDNALQSGNSQESVTEQDSKDSTYSLSSTLTLSKADYEKHKVYACEVTHQGLSSPVTKSFNRGEC
**Q.** With B4 as the binder, how does the ECM binding ratio (standard = 1) (ratio to standard antibody) read?
**A.** The ECM binding ratio (standard = 1) (ratio to standard antibody) was 0.8.
